Here are results for 30 sequences from the nanobody polyreactivity screen of Harvey et al. (2022).

The data set can be described thus: yeast display, Sf9 membrane polyspecificity reagent, FACS + sequencing; frameworks hold sequencing errors. In short, it runs like this:
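Using colony PCR, genes from sorted yeast display clones were amplified, then sequenced on MiSeq at 2 × 250 and filtered by CDR length. The clones had been stained with 10% biotinylated, detergent-solubilized Sf9 membrane reagent for 1 hour at 4 °C and sorted by FACS into low and high (top ~1%) gates on anti-HA and streptavidin fluorescence. Polyreactivity labels come from the gate of origin.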
Regarding “QVHHEESGGGLVQAGGSLRLSCAASGGIFYLNDMGWYRQAPGKERELVAAITGTGGNTYYADSVKGRFTISRDNAKNTVYLQMNSLKPEDTAVYYCAAQHYWVTSYLSSYDYWGQGTQVTVSS”, the “polyreactivity (PSR sort gate)” value is listed as “low polyreactivity”.

For the sequence “QVQLVESGGGLVQAGGSLRLSCAASGSILYTNAMGWYRQAPGKERELVAAITTSGASTYYADSVKGRFTISRDNAKNTVYLQMNSLKPEDTAVYYCAATDYFPYDTYYAHDYWGQGTQVTVSS”, the “polyreactivity (PSR sort gate)” value was “high polyreactivity”.

Consider “QVQLVESGGGLVKAGGSLRLSCAASGSSFSSYAMGWYREAPGKEWELVAAISGGGNTYYADSVKGRFTISSDNAKNTVYLQMNSLKPEDTAVYYCNKSRLEPEYGYWGQGTQVTVSS”, for which the “polyreactivity (PSR sort gate)” value is “low polyreactivity”.

For “QVQLVESGGGLVQAGGSLRLSCAASGRIVTSNAMGWYRQAPGKERELVAVISRRGGSTYYADYVKGRFTITRDNAKNTVYLQMNSVKPEDTAVYYCARRPYSYTRYEYWGQGTQVTVSS”, the “polyreactivity (PSR sort gate)” value is “low polyreactivity”.

As for “QVQLVESGGGLVQAGGSLRLSCAASGIILPYYVMGWYRQAPGKERELVAAISSGGRTYYADSVKGRFTISRDNAKNTVYLQMNSLKPEDTAVYYCNAYFTGKWYDYWGQGTQVTVSS”, the “polyreactivity (PSR sort gate)” value is listed as “high polyreactivity”.

As to “QVQLVESGGGLVQAGGSLRLSCAASGRTFWNYAMGWYRQAPGKERELVAAISSSGGTTYYADSVKGRFTISRDNAKNTVYLQMNSLKPEDTAVYYCAATGVSKPQRSFGYWGQGTQVTVSS”, the “polyreactivity (PSR sort gate)” value was “low polyreactivity”.

With “QVQLVESGGGLVQAGGSLRLSCAASGSIFSSYAMGWYRQAPGKERELVAAISGGGNTYYADSVKGRFTISRDNAKNTVYLQMNSLKPEDTAVYYCATDTYDPFHIEDDYWGQGTQVTVSS”, the “polyreactivity (PSR sort gate)” value is listed as “low polyreactivity”.

For “QVQLVESGGGLVQAGGSLRLSCAASGFTCGSYTMGWYRQAPGKERELVAVISRSGSSTYYADSVKGRFTISRDNAKNTVYLQMNSLKPEDTAVYYCNADYSRLGYDYWGQGTQVTVSS”, the “polyreactivity (PSR sort gate)” value is recorded as “high polyreactivity”.

Consider “QVQLVESGGGLVQAGGSLRLSCAASGFIFWSYAMGWYIQAPGKERELVAAINTSGDSTYYADSVKGRFTISRDNAKNTVYLQMNSLKPEDTAVYYCAAKSSTRGDYWGQGTQVTVSS”, for which the “polyreactivity (PSR sort gate)” value is “low polyreactivity”.

As to “QVQLVESGGGLVQEGGSLRLSCAASGSTFYPNAMGWYRQAPGKERELVAAISSSGGSTYYADSVKGRFTISRDNAKNTVYLQMNSLKPEDTAVYYCNKRWFRDYDYWGPGTQVTVSS”, the “polyreactivity (PSR sort gate)” value is recorded as “high polyreactivity”.

For the sequence “QVQLVESGGGLVQAGGSLRLSCAASGRIFQYNVMGWYRQAPGKERELVAAISSGGNTYYADSVKGRFTISRDNAKNTVYLQMNSLKPEDTAVYYCAADHYVPWPNYDYDYWGQGTQVTVSS”, the “polyreactivity (PSR sort gate)” value was “low polyreactivity”.

“QVQLVESGGGLVQAGGSLRLSCAASGLIFRYYAMGWYRQAPGKERELVAVINYSGGRTYYADSVKGRFTISRDNAKNTVYLQMNSLKPEDTAVYYCAASFASKYEYWGQGTQVTVSS”: the “polyreactivity (PSR sort gate)” value is recorded as “high polyreactivity”.

Consider “QVPLVESGGGLVQAGGSLRLSCAASGYIFEKYAMGWYRHAPGKERELVAAITVTGASTYYADSVKGRFTSSRDNAKNTVYLQMNSLKPEDTAVYYGAAKTLSVGYVDPDYGRDYWGQGTQLTVSS”, for which the “polyreactivity (PSR sort gate)” value is “low polyreactivity”.

Consider “QVQLVESGGGLVQAGGSLRLSCASSGIIFTFNAKGWYRQAPGKERELVAAISGRGARTYYADSVKGRFTISRDNAKNTVYLKMKSLKPEDTAVYYCAAPSNSYRSLSNSYQYYYWGQGSQVTVSS”, for which the “polyreactivity (PSR sort gate)” value is “high polyreactivity”.

For the sequence “QVQLVESGGGLVQAGGSLRLSCAASGLIFWAYAMGWYRQAPGKERELVAAISWSGARTYYADSVKGRFTISRDNAKNTVYLQMNILKPEDTAVYYCAAGLSSSSSGYEGDYWGLGTQVTVSS”, the “polyreactivity (PSR sort gate)” value was “high polyreactivity”.

Take “QVQLVESGGGLVQAGGSLRLSCAASGSIFRAYAMGWYRQAPGKERELVAAISIGGRTYYADSVKGRFTISRDNAKNTVYLQMNSLKPEDTAVYYCAAVRSYVKGGMYYWGQGTQVTVSS”: the “polyreactivity (PSR sort gate)” value is recorded as “low polyreactivity”.

As to “QVQLVESGGGLVQAGGSLRLSCAASGRTSVLYAMGWYRQAPGKEREFVAAITWNSGSTYYADSVKGRFTISRDNAKNTVYLQMNSLKPEDTAVYYCNADYYFSSYRSTYDYWGQGTQVTVSS”, the “polyreactivity (PSR sort gate)” value is reported as “low polyreactivity”.

Turning to “QVQLVESGGGLVQAGGSLRLSCAASGITFSRNAMGWYRQAPGNERELVATITSGCSTNYADSVKGRFTISRDNAKNNVYLQMNSLKPEDTAIYYCNAVWNTFISGRSYDYWGQGTQVTVSS”, the “polyreactivity (PSR sort gate)” value was “low polyreactivity”.

Regarding “QVQLVESGGGLVQAGGSLRLSCAASGSTFLSYAMGWYRQAPGTERELVAGIDWSTGDTYYADSEKGRFTISRDNAKNTVYLQMNSLKPEDTAVYYCNKANLYRFWEIDYWGQGTQVTLSS”, the “polyreactivity (PSR sort gate)” value was “high polyreactivity”.

With “QVQLVESGGGLVQAGGSLRLSCAASGYIFSYYAMGWYRQAPGKEREFVAAIRWRGGSTYYADSVKGRFTISRDNAKNTVYLQMNSLKPEDTAVYYCAAGPGTSYYWGQGTQVTVSS”, the “polyreactivity (PSR sort gate)” value is listed as “high polyreactivity”.

As to “QDQLVESGGGLVQAGRSLRLSCAASGRIIKLYAMGWYRQAPGKERELVAAISKSGGNTYADSVKGRFTISRDNAKNTVYLQMNSLKPEDTAVYYCAASVQSTSDPFDYWGQGTQVTVSS”, the “polyreactivity (PSR sort gate)” value was “low polyreactivity”.

Turning to “QVQREESGGGLVQAGGSLRLSCAASGRIMNINAMGWYRPATGKERERVAAITWRGGRTFYADSVKGRFTISRDNAKNTVYLQMNSLKAEDTAVYYCAASSNSWYPTGYYWGQGTQVTVSS”, the “polyreactivity (PSR sort gate)” value was “high polyreactivity”.

With “QVQLVESGGGLVQAGGSLRLSCAASGSTIGYYAMGWYRQAPGTERELVAAITRSGGSTSYADSVKGRFTISRDNAKNTVYLQMNSLKPEDTAVYYCAARFYRPYYARQGYNYWGQGTQVTVSS”, the “polyreactivity (PSR sort gate)” value is recorded as “high polyreactivity”.

With “QVQLVESGGGLVQAGGSLRLSCAASGIIFSSYAMGWYRQAPGKERELVAAISRRSGSTYYADSVKGRFTISRDNAKNTVYLQMNSLKPEDTAVYYCNKLPGTPRSLATGDYWGQGTQVTVSS”, the “polyreactivity (PSR sort gate)” value was “high polyreactivity”.

Turning to “QVQLVESGGGLVKAGGSLRLSCAASGFIFVYYAMGWYRQAPGKERELVARISWRGGRTYYADSVKGRFTISRDNAKNTVYLQMNSLKPEDTAVYYCNADFWNSHVWYDYWGQGTQVTVSS”, the “polyreactivity (PSR sort gate)” value is recorded as “high polyreactivity”.

As to “QVQLVESGGGLVQAGGSLRLSCAASGRTFRSYAMGWYRQAPGKERELVAAISSGGSTNYADSVKGRFTISRDNAKNTVYLQMNSLKPEDTAVYYCNKVVHSFRFPYRYDMDYWGQGTQVTVSS”, the “polyreactivity (PSR sort gate)” value is listed as “high polyreactivity”.

On to “QVQLVESGGGLVQAGGSLRLSCAASGRTFRSIAMGWYRKAPGKERELVAAITSSGGRTYYADSVKGRFTISRDNAKNTVYVQMNSLTPEDTAVYYCNAGRQHPPRYSSYDYWGQGTQVTVSS”, for which the “polyreactivity (PSR sort gate)” value was “high polyreactivity”.

For “QVQLVESGGGLVQAGGSLRLSCAASGLTFYEYAMGWYTQAPGKERELVAAITASGGSTYYADSVKGRFTISRDNAKNTVYLQMNSLKPEDSAVYYCAAVDYVRYYPDEFDYWGQGTQVTVSS”, the “polyreactivity (PSR sort gate)” value was “low polyreactivity”.

Consider “QVQLVESGGGFVQAGGSLRLSCAASGLIFSWYDMGWYRQAPGKERELVAAITTDGDDTYYADSVKGRFTISRDNAKNTVYLQMNSLKPEDTAVYYCAADSELAIRYPDRDYDSWGQGTQVTVSS”, for which the “polyreactivity (PSR sort gate)” value is given as “low polyreactivity”.

Regarding “QVQLVESGGGLVQAGGSLRLSCAASGRTIYYYAMGWYRQAPGKEREFVAAISWHGGSTYYADSVKGRFTISRDNAKNTVYLQMNSLKPEDTAVYYCAADIYLRGFHYDYWGQGTQVTVSS”, the “polyreactivity (PSR sort gate)” value is “low polyreactivity”.
